The values that follow come from article PMC2582589 (Structure (London, England : 1993), 2008).

Series [1] concerns the target T1, Eaf3 chromo barrel domain (1–113 aa) (Saccharomyces cerevisiae, UniProt Q12432).
T1 sequence (Q12432 1-113): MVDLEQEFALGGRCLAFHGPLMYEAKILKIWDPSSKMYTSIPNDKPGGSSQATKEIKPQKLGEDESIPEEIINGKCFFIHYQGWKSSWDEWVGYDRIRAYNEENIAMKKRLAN
The series can be described thus: 15N-1H HSQC NMR titration of 15N-labeled Eaf3. It counts as binding. The following applies: for affinity relative to other methylated ligands (in words): from KD comparison; for affinity for Eaf3 (in words): HSQC titration, pH 6.7.

The target in series [2] is T2, Eaf3 chromo barrel domain (1–113 aa) (S. cerevisiae, UniProt Q12432 1-113).
T2 sequence (looked up): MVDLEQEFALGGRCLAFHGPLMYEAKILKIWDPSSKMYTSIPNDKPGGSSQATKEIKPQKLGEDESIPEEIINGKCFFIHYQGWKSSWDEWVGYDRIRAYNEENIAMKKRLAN
Put plainly: NMR titration.

The nature of series [3]: Gel filtration chromatography of extended Eaf3. The following applies: change in gel filtration chromatography retention time (data not shown). It is filed as physicochemical. For orientation: SEC sorts molecules by how far they enter the pores of the column.
Series [4] can be described thus: Protein stability, precipitation or aggregation of Eaf3 constructs. It counts as physicochemical. The following applies: purified proteins expressed in Escherichia coli or NMR samples.
The subject of series [5] is Eaf3 chromo barrel domain and linked H3KC36me2. The series can be described thus: 15N-1H HSQC spectra of fused Eaf3-H3C36. It counts as binding, Saccharomyces cerevisiae. The following applies: 15N-1H HSQC before and after dimethylation, 300K, pH 6.7.
Setting [6] is: read-out: dissociation constant (KD), 15N-1H HSQC titration, 15N-labeled Eaf3 (1–113 aa), 300K, 20 mM NaPi pH 6.7, 50 mM NaCl, 1 mM EDTA, 2 mM DTT, range of estimates from amide peaks of two to four selected amino acids, curve fitting.

Like-named read-outs stand apart in the source and are kept apart here. Square brackets hold non-standard residues; d marks the D form. Ends that are not written are not given here. Lys(Me3) = C[N+](C)(C)CCCC[C@H](N)C(=O)O

With `C[N+](C)(C)CCCC[C@H](N)C(=O)O` [trimethyllysine, trimethylated lysine, reference compound], in series [1], the Kd (in general, the concentration at which binding is half-saturated) was in the range of 8.6 to 19.2 mM and the “affinity relative to other methylated ligands (in words)” value is given as “significantly lower than that measured with trimethylated peptides under similar conditions”.
KRHRK20me3VLRDN [H4K20me3]: in series [1] (setting [6]), the Kd was 3 to 4 mM.
On to “ATGGVKC36me3KPHRYR (ATGGVCKPHRYR; not fully specified (residue 6)) [H3KC36me3]”, for which the “affinity relative to other methylated ligands (in words)” value in series [1] is reported as “only slightly lower than that of the H3K36me3 peptide”.
Turning to `CN(C)C(N)=NCCC[C@H](N)C(=O)O` [asymmetrically dimethylated arginine, reference compound], the “affinity for Eaf3 (in words)” value in series [1] (300K) was “does not have any significant affinity”.
Take ATGGVK36me3KPHRYR [H3K36me3]: the “affinity for Eaf3 (in words)” value in series [1] (300K) is reported as “very low affinity (KD in the millimolar range)”; in series [1] (300K, listed as methylated H3K36 peptide) it was “millimolar-range affinity”. The “affinity relative to other methylated ligands (in words)” value in series [1] is on record as “comparable to that determined for the Eaf3-H3K4me3 complex”. The dissociation constant Kd in series [1] (setting [6]) was 1.8 to 3.4 mM.
Regarding ATGGV[Lys(Me3)]KPHRYR [H3K36me3 peptide (31–42 aa)], in series [2], the dissociation constant Kd fell in the range of 1.8 to 3.4 mM.
Still for that read-out and setting: the same measure for ATGGVCKPHRYR (not fully specified (residue 6)) [H3KC36me3 peptide (31–42 aa)]: 5 to 7 mM.

B1: Eaf3 (1–126 aa): Eaf3 extended by 13 residues (protein)
chain: MVDLEQEFALGGRCLAFHGPLMYEAKILKIWDPSSKMYTSIPNDKPGGSSQATKEIKPQKLGEDESIPEEIINGKCFFIHYQGWKSSWDEWVGYDRIRAYNEENIAMKKRLANEAKEAKKSLLEQQ
Regarding B1, in series [3], the “oligomerization (in words)” value is listed as “apparent homodimerization”.

B2: Y23A: single-point mutation in Eaf3-H3C36 (protein, UniProt Q12432 1-401, looked up, variant Y23A)
Chromatin …: MVDLEQEFALGGRCLAFHGPLMAEAKILKIWDPSSKMYTSIPNDKPGGSSQATKEIKPQKLGEDESIPEEIINGKCFFIHYQGWKSSWDEWVGYDRIRAYNEENIAMKKRLANEAKEAKKSLLEQQKKKKLSTSLGGPSNGGKRKGDSRSNASISKSTSQSFLTSSVSGRKSGRSSANSLHPGSSLRSSSDQNGNDDRRRSSSLSPNMLHHIAGYPTPKISLQIPIKLKSVLVDDWEYVTKDKKICRLPADVTVEMVLNKYEHEVSQELESPGSQSQLSEYCAGLKLYFDKCLGNMLLYRLERLQYDELLKKSSKDQKPLVPIRIYGAIHLLRLISVLPELISSTTMDLQSCQLLIKQTEDFLVWLLMHVDEYFNDKDPNRSDDALYVNTSSQYEGVALGM
modifications: fused to histone H3 peptide
Take B2: the “protein stability / precipitation / aggregation (in words)” value in series [4] is “unstable and highly prone to precipitation”.

B3: W84A: single-point mutation in Eaf3-H3C36 (protein, UniProt Q12432 1-401, looked up, variant W84A)
Chromatin …: MVDLEQEFALGGRCLAFHGPLMYEAKILKIWDPSSKMYTSIPNDKPGGSSQATKEIKPQKLGEDESIPEEIINGKCFFIHYQGAKSSWDEWVGYDRIRAYNEENIAMKKRLANEAKEAKKSLLEQQKKKKLSTSLGGPSNGGKRKGDSRSNASISKSTSQSFLTSSVSGRKSGRSSANSLHPGSSLRSSSDQNGNDDRRRSSSLSPNMLHHIAGYPTPKISLQIPIKLKSVLVDDWEYVTKDKKICRLPADVTVEMVLNKYEHEVSQELESPGSQSQLSEYCAGLKLYFDKCLGNMLLYRLERLQYDELLKKSSKDQKPLVPIRIYGAIHLLRLISVLPELISSTTMDLQSCQLLIKQTEDFLVWLLMHVDEYFNDKDPNRSDDALYVNTSSQYEGVALGM
modifications: fused to histone H3 peptide
Regarding B3, the “protein stability / precipitation / aggregation (in words)” value in series [4] is on record as “prone to precipitation”. Moreover, the “spectral change upon dimethylation of fused H3C36” value in series [5] is listed as “Very little spectral change”.

B4: Y81A: single-point mutation in Eaf3-H3C36 (protein, UniProt Q12432 1-401, looked up, variant Y81A)
Chromatin …: MVDLEQEFALGGRCLAFHGPLMYEAKILKIWDPSSKMYTSIPNDKPGGSSQATKEIKPQKLGEDESIPEEIINGKCFFIHAQGWKSSWDEWVGYDRIRAYNEENIAMKKRLANEAKEAKKSLLEQQKKKKLSTSLGGPSNGGKRKGDSRSNASISKSTSQSFLTSSVSGRKSGRSSANSLHPGSSLRSSSDQNGNDDRRRSSSLSPNMLHHIAGYPTPKISLQIPIKLKSVLVDDWEYVTKDKKICRLPADVTVEMVLNKYEHEVSQELESPGSQSQLSEYCAGLKLYFDKCLGNMLLYRLERLQYDELLKKSSKDQKPLVPIRIYGAIHLLRLISVLPELISSTTMDLQSCQLLIKQTEDFLVWLLMHVDEYFNDKDPNRSDDALYVNTSSQYEGVALGM
modifications: fused to histone H3 peptide
For B4, the “protein stability / precipitation / aggregation (in words)” value in series [4] is “unstable and highly prone to precipitation”.

B5: W88A: single-point mutation in Eaf3-H3C36 (protein, UniProt Q12432 1-401, looked up, variant W88A)
Chromatin …: MVDLEQEFALGGRCLAFHGPLMYEAKILKIWDPSSKMYTSIPNDKPGGSSQATKEIKPQKLGEDESIPEEIINGKCFFIHYQGWKSSADEWVGYDRIRAYNEENIAMKKRLANEAKEAKKSLLEQQKKKKLSTSLGGPSNGGKRKGDSRSNASISKSTSQSFLTSSVSGRKSGRSSANSLHPGSSLRSSSDQNGNDDRRRSSSLSPNMLHHIAGYPTPKISLQIPIKLKSVLVDDWEYVTKDKKICRLPADVTVEMVLNKYEHEVSQELESPGSQSQLSEYCAGLKLYFDKCLGNMLLYRLERLQYDELLKKSSKDQKPLVPIRIYGAIHLLRLISVLPELISSTTMDLQSCQLLIKQTEDFLVWLLMHVDEYFNDKDPNRSDDALYVNTSSQYEGVALGM
modifications: fused to histone H3 peptide
Take B5: the “spectral change upon dimethylation of fused H3C36” value in series [5] is “Very little spectral change”.

B6: Eaf3: N-terminal 1–113 aa of budding yeast Eaf3 (protein)
chain: MVDLEQEFALGGRCLAFHGPLMYEAKILKIWDPSSKMYTSIPNDKPGGSSQATKEIKPQKLGEDESIPEEIINGKCFFIHYQGWKSSWDEWVGYDRIRAYNEENIAMKKRLAN
B6: the “protein stability / precipitation / aggregation (in words)” value in series [4] is listed as “has a tendency to aggregate”.
Molecule ART[Lys(Me3)]QTARKS [H3K4me3 peptide (1–10 aa)] gave a Kd in series [2] of 1 to 3 mM.
Same read-out and setting: for KRHR[Lys(Me3)]VLRDN [H4K20me3 peptide (16–25 aa)] the value was 3 to 4 mM.
